# Reference: patent US9625458
# Target: Gly-Leu dipeptide
# Test: fluorimetric titration of the fluorophore conjugate with ligand, fit to binding isotherm
row,Binder,Kd [µM]
1,"dipeptide BP K394C-NBD conjugate (receptor, E. coli, not shown: small tags and cut ends, NBD fluorophore conjugated to the thiol of Cys 394) MKTLVYCSEGSPEGFNPQLFTSGTTYDASSVPLYNRLVEFKIGTTEVIPGLAEKWEVSEDGKTYTFHLRKGVKWHDNKEFKPTRELNADDVVFSFDRQKNAQNPYHKVSGGSYEYFEGMGLPELISEVKKVDDNTVQFVLTRPEAPFLADLAMDFASILSKEYADAMMKAGTPEKLDLNPIGTGPFQLQQYQKDSRIRYKAFDGYWGTKPQIDTLVFSITPDASVRYAKLQKNECQVMPYPNPADIARMKQDKSINLMEMPGLNVGYLSYNVQKKPLDDVKVRQALTYAVNKDAIIKAVYQGAGVSAKNLIPPTMWGYNDDVQDYTYDPEKAKALLKEAGLEKGFSIDLWAMPVQRPYNPNARRMAEMIQADWAKVGVQAKIVTYEWGEYLKRACDGEHQTVMMGWTGDNGDPDNFFATLFSCAASEQGSNYSKWCYKPFEDLIQPARATDDHNKRVELYKQAQVVMHDQAPALIIAHSTVFEPVRKEVKGYVVDPLGKHHFENVSIE",0.012
2,"dipeptide BP S111C-Acrylodan conjugate (receptor, E. coli, not shown: small tags and cut ends, acrylodan fluorophore conjugated to the thiol of Cys 111) MKTLVYCSEGSPEGFNPQLFTSGTTYDASSVPLYNRLVEFKIGTTEVIPGLAEKWEVSEDGKTYTFHLRKGVKWHDNKEFKPTRELNADDVVFSFDRQKNAQNPYHKVSGGCYEYFEGMGLPELISEVKKVDDNTVQFVLTRPEAPFLADLAMDFASILSKEYADAMMKAGTPEKLDLNPIGTGPFQLQQYQKDSRIRYKAFDGYWGTKPQIDTLVFSITPDASVRYAKLQKNECQVMPYPNPADIARMKQDKSINLMEMPGLNVGYLSYNVQKKPLDDVKVRQALTYAVNKDAIIKAVYQGAGVSAKNLIPPTMWGYNDDVQDYTYDPEKAKALLKEAGLEKGFSIDLWAMPVQRPYNPNARRMAEMIQADWAKVGVQAKIVTYEWGEYLKRAKDGEHQTVMMGWTGDNGDPDNFFATLFSCAASEQGSNYSKWCYKPFEDLIQPARATDDHNKRVELYKQAQVVMHDQAPALIIAHSTVFEPVRKEVKGYVVDPLGKHHFENVSIE",4.8
3,"dipeptide BP T44C-Fluorescein conjugate (receptor, E. coli, not shown: small tags and cut ends, fluorescein (5-iodoacetamidofluorescein) conjugated to the thiol of Cys 44) MKTLVYCSEGSPEGFNPQLFTSGTTYDASSVPLYNRLVEFKIGTCEVIPGLAEKWEVSEDGKTYTFHLRKGVKWHDNKEFKPTRELNADDVVFSFDRQKNAQNPYHKVSGGSYEYFEGMGLPELISEVKKVDDNTVQFVLTRPEAPFLADLAMDFASILSKEYADAMMKAGTPEKLDLNPIGTGPFQLQQYQKDSRIRYKAFDGYWGTKPQIDTLVFSITPDASVRYAKLQKNECQVMPYPNPADIARMKQDKSINLMEMPGLNVGYLSYNVQKKPLDDVKVRQALTYAVNKDAIIKAVYQGAGVSAKNLIPPTMWGYNDDVQDYTYDPEKAKALLKEAGLEKGFSIDLWAMPVQRPYNPNARRMAEMIQADWAKVGVQAKIVTYEWGEYLKRAKDGEHQTVMMGWTGDNGDPDNFFATLFSCAASEQGSNYSKWCYKPFEDLIQPARATDDHNKRVELYKQAQVVMHDQAPALIIAHSTVFEPVRKEVKGYVVDPLGKHHFENVSIE",0.64
4,"dipeptide BP D450C-JPW4039 conjugate (receptor, E. coli, not shown: small tags and cut ends, JPW4039 fluorophore conjugated to the thiol of Cys 450) MKTLVYCSEGSPEGFNPQLFTSGTTYDASSVPLYNRLVEFKIGTTEVIPGLAEKWEVSEDGKTYTFHLRKGVKWHDNKEFKPTRELNADDVVFSFDRQKNAQNPYHKVSGGSYEYFEGMGLPELISEVKKVDDNTVQFVLTRPEAPFLADLAMDFASILSKEYADAMMKAGTPEKLDLNPIGTGPFQLQQYQKDSRIRYKAFDGYWGTKPQIDTLVFSITPDASVRYAKLQKNECQVMPYPNPADIARMKQDKSINLMEMPGLNVGYLSYNVQKKPLDDVKVRQALTYAVNKDAIIKAVYQGAGVSAKNLIPPTMWGYNDDVQDYTYDPEKAKALLKEAGLEKGFSIDLWAMPVQRPYNPNARRMAEMIQADWAKVGVQAKIVTYEWGEYLKRAKDGEHQTVMMGWTGDNGDPDNFFATLFSCAASEQGSNYSKWCYKPFEDLIQPARATCDHNKRVELYKQAQVVMHDQAPALIIAHSTVFEPVRKEVKGYVVDPLGKHHFENVSIE",0.91
5,"dipeptide BP S111C-JPW4039 conjugate (receptor, E. coli, not shown: small tags and cut ends, JPW4039 fluorophore conjugated to the thiol of Cys 111) MKTLVYCSEGSPEGFNPQLFTSGTTYDASSVPLYNRLVEFKIGTTEVIPGLAEKWEVSEDGKTYTFHLRKGVKWHDNKEFKPTRELNADDVVFSFDRQKNAQNPYHKVSGGCYEYFEGMGLPELISEVKKVDDNTVQFVLTRPEAPFLADLAMDFASILSKEYADAMMKAGTPEKLDLNPIGTGPFQLQQYQKDSRIRYKAFDGYWGTKPQIDTLVFSITPDASVRYAKLQKNECQVMPYPNPADIARMKQDKSINLMEMPGLNVGYLSYNVQKKPLDDVKVRQALTYAVNKDAIIKAVYQGAGVSAKNLIPPTMWGYNDDVQDYTYDPEKAKALLKEAGLEKGFSIDLWAMPVQRPYNPNARRMAEMIQADWAKVGVQAKIVTYEWGEYLKRAKDGEHQTVMMGWTGDNGDPDNFFATLFSCAASEQGSNYSKWCYKPFEDLIQPARATDDHNKRVELYKQAQVVMHDQAPALIIAHSTVFEPVRKEVKGYVVDPLGKHHFENVSIE",34
6,"dipeptide BP W315C-JPW4039 conjugate (receptor, E. coli, not shown: small tags and cut ends, JPW4039 fluorophore conjugated to the thiol of Cys 315) MKTLVYCSEGSPEGFNPQLFTSGTTYDASSVPLYNRLVEFKIGTTEVIPGLAEKWEVSEDGKTYTFHLRKGVKWHDNKEFKPTRELNADDVVFSFDRQKNAQNPYHKVSGGSYEYFEGMGLPELISEVKKVDDNTVQFVLTRPEAPFLADLAMDFASILSKEYADAMMKAGTPEKLDLNPIGTGPFQLQQYQKDSRIRYKAFDGYWGTKPQIDTLVFSITPDASVRYAKLQKNECQVMPYPNPADIARMKQDKSINLMEMPGLNVGYLSYNVQKKPLDDVKVRQALTYAVNKDAIIKAVYQGAGVSAKNLIPPTMCGYNDDVQDYTYDPEKAKALLKEAGLEKGFSIDLWAMPVQRPYNPNARRMAEMIQADWAKVGVQAKIVTYEWGEYLKRAKDGEHQTVMMGWTGDNGDPDNFFATLFSCAASEQGSNYSKWCYKPFEDLIQPARATDDHNKRVELYKQAQVVMHDQAPALIIAHSTVFEPVRKEVKGYVVDPLGKHHFENVSIE",1
7,"dipeptide BP R141C-Acrylodan conjugate (receptor, E. coli, not shown: small tags and cut ends, acrylodan fluorophore conjugated to the thiol of Cys 141) MKTLVYCSEGSPEGFNPQLFTSGTTYDASSVPLYNRLVEFKIGTTEVIPGLAEKWEVSEDGKTYTFHLRKGVKWHDNKEFKPTRELNADDVVFSFDRQKNAQNPYHKVSGGSYEYFEGMGLPELISEVKKVDDNTVQFVLTCPEAPFLADLAMDFASILSKEYADAMMKAGTPEKLDLNPIGTGPFQLQQYQKDSRIRYKAFDGYWGTKPQIDTLVFSITPDASVRYAKLQKNECQVMPYPNPADIARMKQDKSINLMEMPGLNVGYLSYNVQKKPLDDVKVRQALTYAVNKDAIIKAVYQGAGVSAKNLIPPTMWGYNDDVQDYTYDPEKAKALLKEAGLEKGFSIDLWAMPVQRPYNPNARRMAEMIQADWAKVGVQAKIVTYEWGEYLKRAKDGEHQTVMMGWTGDNGDPDNFFATLFSCAASEQGSNYSKWCYKPFEDLIQPARATDDHNKRVELYKQAQVVMHDQAPALIIAHSTVFEPVRKEVKGYVVDPLGKHHFENVSIE",2.3
8,"dipeptide BP T44C-NBD conjugate (receptor, E. coli, not shown: small tags and cut ends, NBD fluorophore conjugated to the thiol of Cys 44) MKTLVYCSEGSPEGFNPQLFTSGTTYDASSVPLYNRLVEFKIGTCEVIPGLAEKWEVSEDGKTYTFHLRKGVKWHDNKEFKPTRELNADDVVFSFDRQKNAQNPYHKVSGGSYEYFEGMGLPELISEVKKVDDNTVQFVLTRPEAPFLADLAMDFASILSKEYADAMMKAGTPEKLDLNPIGTGPFQLQQYQKDSRIRYKAFDGYWGTKPQIDTLVFSITPDASVRYAKLQKNECQVMPYPNPADIARMKQDKSINLMEMPGLNVGYLSYNVQKKPLDDVKVRQALTYAVNKDAIIKAVYQGAGVSAKNLIPPTMWGYNDDVQDYTYDPEKAKALLKEAGLEKGFSIDLWAMPVQRPYNPNARRMAEMIQADWAKVGVQAKIVTYEWGEYLKRAKDGEHQTVMMGWTGDNGDPDNFFATLFSCAASEQGSNYSKWCYKPFEDLIQPARATDDHNKRVELYKQAQVVMHDQAPALIIAHSTVFEPVRKEVKGYVVDPLGKHHFENVSIE",0.006
9,"dipeptide BP S111C-JPW4042 conjugate (receptor, E. coli, not shown: small tags and cut ends, JPW4042 fluorophore conjugated to the thiol of Cys 111) MKTLVYCSEGSPEGFNPQLFTSGTTYDASSVPLYNRLVEFKIGTTEVIPGLAEKWEVSEDGKTYTFHLRKGVKWHDNKEFKPTRELNADDVVFSFDRQKNAQNPYHKVSGGCYEYFEGMGLPELISEVKKVDDNTVQFVLTRPEAPFLADLAMDFASILSKEYADAMMKAGTPEKLDLNPIGTGPFQLQQYQKDSRIRYKAFDGYWGTKPQIDTLVFSITPDASVRYAKLQKNECQVMPYPNPADIARMKQDKSINLMEMPGLNVGYLSYNVQKKPLDDVKVRQALTYAVNKDAIIKAVYQGAGVSAKNLIPPTMWGYNDDVQDYTYDPEKAKALLKEAGLEKGFSIDLWAMPVQRPYNPNARRMAEMIQADWAKVGVQAKIVTYEWGEYLKRAKDGEHQTVMMGWTGDNGDPDNFFATLFSCAASEQGSNYSKWCYKPFEDLIQPARATDDHNKRVELYKQAQVVMHDQAPALIIAHSTVFEPVRKEVKGYVVDPLGKHHFENVSIE",15.8
10,"dipeptide BP R141C-Fluorescein conjugate (receptor, E. coli, not shown: small tags and cut ends, fluorescein (5-iodoacetamidofluorescein) conjugated to the thiol of Cys 141) MKTLVYCSEGSPEGFNPQLFTSGTTYDASSVPLYNRLVEFKIGTTEVIPGLAEKWEVSEDGKTYTFHLRKGVKWHDNKEFKPTRELNADDVVFSFDRQKNAQNPYHKVSGGSYEYFEGMGLPELISEVKKVDDNTVQFVLTCPEAPFLADLAMDFASILSKEYADAMMKAGTPEKLDLNPIGTGPFQLQQYQKDSRIRYKAFDGYWGTKPQIDTLVFSITPDASVRYAKLQKNECQVMPYPNPADIARMKQDKSINLMEMPGLNVGYLSYNVQKKPLDDVKVRQALTYAVNKDAIIKAVYQGAGVSAKNLIPPTMWGYNDDVQDYTYDPEKAKALLKEAGLEKGFSIDLWAMPVQRPYNPNARRMAEMIQADWAKVGVQAKIVTYEWGEYLKRAKDGEHQTVMMGWTGDNGDPDNFFATLFSCAASEQGSNYSKWCYKPFEDLIQPARATDDHNKRVELYKQAQVVMHDQAPALIIAHSTVFEPVRKEVKGYVVDPLGKHHFENVSIE",38
11,"dipeptide BP S111C-Fluorescein conjugate (receptor, E. coli, not shown: small tags and cut ends, fluorescein (5-iodoacetamidofluorescein) conjugated to the thiol of Cys 111) MKTLVYCSEGSPEGFNPQLFTSGTTYDASSVPLYNRLVEFKIGTTEVIPGLAEKWEVSEDGKTYTFHLRKGVKWHDNKEFKPTRELNADDVVFSFDRQKNAQNPYHKVSGGCYEYFEGMGLPELISEVKKVDDNTVQFVLTRPEAPFLADLAMDFASILSKEYADAMMKAGTPEKLDLNPIGTGPFQLQQYQKDSRIRYKAFDGYWGTKPQIDTLVFSITPDASVRYAKLQKNECQVMPYPNPADIARMKQDKSINLMEMPGLNVGYLSYNVQKKPLDDVKVRQALTYAVNKDAIIKAVYQGAGVSAKNLIPPTMWGYNDDVQDYTYDPEKAKALLKEAGLEKGFSIDLWAMPVQRPYNPNARRMAEMIQADWAKVGVQAKIVTYEWGEYLKRAKDGEHQTVMMGWTGDNGDPDNFFATLFSCAASEQGSNYSKWCYKPFEDLIQPARATDDHNKRVELYKQAQVVMHDQAPALIIAHSTVFEPVRKEVKGYVVDPLGKHHFENVSIE",2.6
